Results reported in a protein production outcome set (Wang et al. 2014).

Assay: label from the status in PepcDB records

MSQTRDLQGGKAFGLLKAQQEERLDEINKQFLDDPKYSSDEDLPSKLEGFKEKYMEFDLNGNGDIDIMSLKRMLEKLGVPKTHLELKKLIGEVSSGSGETFSYPDFLRMMLGKRSAILKMILMYEEKAREKEKPTGPPAKKAISELP
protein production: failed

MTWQQFKQQYLVRFWAPMPAVIAAGILSTYYFGLTGTFWAVTGEFTRWGGHLLQLVGANPETWGYFKVIGLQGSPLDRIDGMMIIGMFGGCIAAALWANNVKLRMPQSRIRIAQALIGGIIAGFGARLAMGCNLAAFFTGIPQFSLHAWFFALATAAGSYFGARFTLLPMFRIPVKLKKVDKASSVKQDENQARLRFRIGMLVFAAIIGWGLLTMFNAPKLGIAMLCGVGFGLLIERAQICFTSAFRDMWITGRTHMAKAIILGMAVSAIGIYSYVQLGVPPKIMWAGPNAVIGGLLFGFGIVLAGGCETGWMYRAVEGQVHFWWVGLGNVLGSTLLAYYWDDLAQPLATNWDKVNLLTSFGDKGGLLVTYLLLALSFAAMLLWEKRFFARKAKRDEQLIAEAA
protein production: failed

CEGGVDMQQSQVQLQCPLTPPRGLQVSIQGEAVAVRPGEDVLFVVRQEQGDVLTTKYQVDLGDGFKAMYVNLTLTGEPIRHRYESPGIYRVSVRAENTAGHDEAVLFVQV
protein production: not failed

SYTFDTTDHKSPCCNFQWYIFRKQGESRIITCELFGVIVSLENRWDWLEFMIDDSLQLTAFRCPKRDKLGMETLLQLGDVAQVTGNWKLSNGAFLNATKIAIHNNPDVECKYWLQQIQKYKSKVCELEIPSDWIRRQQRAHNLKTDAVLSFSAQVSTAAATCWKLWKKHFNQGGKISLQRLWEVIQRENCPKMQELSSCRRNQIVQLLIHLGYLIPLSKEPETYVLLIDDILDKQVMQIFNQNIASKTLSLREVAYRLEEYFHVEEISLERVEESILRLAYKEKVEQV
protein production: not failed

MNLNIRIKNYWEGEAQGYSEAIEDELNGFERKAWSDLVLEYAPSKDRLDILDIGTGPGFFPIVLSQGGHNVTGIDLTENMIEFARLNLAREGASAKLVTMDCQNLKFPDNCFDLLVCRNLTWTLDDPAKAYKEWHRVLKPGGRVLIFDACWYLHLFDENMKIAYEKKEKEILMKYGHPMHQHKDQVEGDALSRKLFMSDKVRPQWDLDIMLKLGFSKVFADTSVGERILNEQQQDRNSMHPPFLVGGEK
protein production: failed

MKRVVEAWDRFQIPLYITALIAGALVGLQWPGSTGGFESAINPALMALLYATFLGIPITRIGAALKDLRFLIVLMSVNFVAVPLVAFALSRFIAGDEALLIGFLLVILAPCIDYVIVFAGLARAAQDKLLAATPILMLVQILLIPVFLAVFVGSDALGSISFGPFVEAFFLLILIPLVAAAGTQQVARKWQVGRTIMAAAEAIMVPLMMLTLFAVIASQVEAVSGQFTDIATVVPLYVAFLMVMIPIGGGISKLGGLGFKEQRAIVFSGATRNSLVVLPLALALPAGLEIAAVVVVTQTLVELIGMVVYVRIIPLIFHEKQTYRKLSGIGES
protein production: failed

TDLPMPRVTVFALWEPLAIMRELWAEGGIGPGRLAVMDRVKGPKTGLLMRHQDKPGGVAFVAIHDGVAMLHALEIPPHQRRKGLGKWAMRGAAFWALDNGAHTLSVICTKANEGANALYRSLGMQLVGEYHYRLLQE
protein production: failed

MKLVLEGVDSFETLRVVGTFNCIDPDYVGSKRVTKKADVYAFEVILMELITGRKANYETLSVDEQNLVMWLRPKIKISTFLNLVDGTIATDKETIKRIKKIAKLAEYCTSQEVESRPLRASRTKSGNEVTSED
protein production: failed

MKKRLLKSFSFSYNSQDENRRLLERLMQYKSKDADKLNEENESIIRKRSAKLKRDLEDAVREPSSSSNAASSPGAASLQRNSSPAQFVGGLIGDEDFDEAAINGAMEAIGLDDNEYISARFTAGEIAENSRASIDTLKATGYLGQANPTKILMKFEAHENESHAVRWSPVERMVATGGADRKVKLWDIGKNSTEPRAVLSGSSAGINSVDFDSTGAYILGTSNDYGARVWTVMDNRLRHTLTGHSGKVMAAKYVQEPIKVVTGSHDRTLKIWDLRSIACIETKFAGSSCNDLVTTDSLGSTIISGHYDKKIRFWDIRTEKQADDVLMPAKITSLDLSKDCNYLICSVRDDTIKLLDLRKNQVISTFTNEHFKISCDFARASFNSSGLKIACGSADGAIYIWNVNGFLEATLKGHSTAVNAVSWSPNNNMLASVGKNKRCTIYSES
protein production: failed

MSSTSPNLQKAIDLASKAAQEDKAGNYEEALQLYQHAVQYFLHVVKYEAQGDKAKQSIRAKCTEYLDRAEKLKEYLKNKEKKAQKPVKEGQPSPADEKGNDSDG
protein production: not failed
